From the supplement of paper PMC12042874
± gives the uncertainty stated by the source.

Assay: amyloid nucleation score (Sup35N fusion, yeast selection) (log enrichment); library NNK1; higher = more nucleation; inactive = no reads after selection
Outline: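 Peptides of 20 random codons, each fused to Sup35N, were expressed in psi-negative yeast. Cells were induced with 100 μM copper sulfate for 24 hours and grown 7 days at 30°C on medium lacking adenine and uracil, and plasmid inserts before and after selection were Illumina-sequenced. Nucleation scores are DiMSum log enrichments of output over input reads, centred on the mode score of non-aggregating sequences, and sequences under 100 input reads were excluded.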

**Q.** Which amyloid nucleation score does the source give for RQSRVQGMYHY here?
**A.** Its amyloid nucleation score is 1.28 ± 0.48.

**Q.** For FGSRQVYWSRRMIVQGQVMK, which amyloid nucleation score is on record?
**A.** Its amyloid nucleation score is -0.837 ± 0.71.

**Q.** For YSVMSSRSGIVGSWVHRGVQ, which amyloid nucleation score is on record?
**A.** Its amyloid nucleation score is 0.38 ± 0.32.

**Q.** With CIWQWVKDNDDNKVAS as the substance, how does the amyloid nucleation score read?
**A.** The amyloid nucleation score was -1.04 ± 0.46.

**Q.** With SLVVEMVNYE as the substance, how does the amyloid nucleation score read?
**A.** The amyloid nucleation score was -0.039 ± 0.29.

**Q.** For GGLVYRLEKDSF, which amyloid nucleation score is on record?
**A.** The amyloid nucleation score was “inactive”.

**Q.** For TPYYPSQKQCRMPRGACVL, which amyloid nucleation score is on record?
**A.** Its amyloid nucleation score is -0.435 ± 0.48.

**Q.** For LGMSKLIMSNNVFNIFDSHP, which amyloid nucleation score is on record?
**A.** Its amyloid nucleation score is 0.847 ± 0.9.

**Q.** With HSCSVPLWIWRFSVRAKGCK as the substance, how does the amyloid nucleation score read?
**A.** Its amyloid nucleation score is 0.562 ± 0.57.

**Q.** For NFAPRYLAI, which amyloid nucleation score is on record?
**A.** The amyloid nucleation score was 0.295 ± 0.34.

**Q.** For WGNFAVSWVFMEVNACRLRW, which amyloid nucleation score is on record?
**A.** The amyloid nucleation score was -0.323 ± 0.66.

**Q.** For CSLKKSMQNYEFHFWFLFIV, which amyloid nucleation score is on record?
**A.** The amyloid nucleation score was -0.757 ± 0.62.

**Q.** Which amyloid nucleation score does the source give for PLVNVYSSAYYSRHLKGLCV here?
**A.** Its amyloid nucleation score is -0.782 ± 0.69.

**Q.** Which amyloid nucleation score does the source give for GTREPDFGCKLDWDSY here?
**A.** The amyloid nucleation score was 0.924 ± 0.25.

**Q.** For FGIPST, which amyloid nucleation score is on record?
**A.** The amyloid nucleation score was 1.05 ± 0.34.

**Q.** For GNWTGGYCVCGRQSSLIVVE, which amyloid nucleation score is on record?
**A.** Its amyloid nucleation score is -0.016 ± 1.7.

**Q.** For TTLVQCQFIPTFCVIPMWLL, which amyloid nucleation score is on record?
**A.** The amyloid nucleation score was 5.58 ± 0.058.

**Q.** With VPWFLHELQTVLAKVNRGQR as the substance, how does the amyloid nucleation score read?
**A.** The amyloid nucleation score was -0.165 ± 0.33.

**Q.** Which amyloid nucleation score does the source give for LVFFCNM here?
**A.** The amyloid nucleation score was 7.824 ± 0.06.

**Q.** For APSYRATWRAVNCAILGPLY, which amyloid nucleation score is on record?
**A.** The amyloid nucleation score was -0.567 ± 0.61.

**Q.** For DGRRFFYQRGDICLSMLHNH, which amyloid nucleation score is on record?
**A.** The amyloid nucleation score was -1.58 ± 1.7.

**Q.** Which amyloid nucleation score does the source give for ARMASHRTCLNVYLRLCAYL here?
**A.** The amyloid nucleation score was -0.343 ± 0.31.

**Q.** With VRSRLLQNLSDIPNQPIRWD as the substance, how does the amyloid nucleation score read?
**A.** The amyloid nucleation score was -0.105 ± 0.33.

**Q.** Which amyloid nucleation score does the source give for SHSTFAVQMRA here?
**A.** Its amyloid nucleation score is 8.273 ± 0.047.

**Q.** With FDSGLETTNIKMRYMVVYLR as the substance, how does the amyloid nucleation score read?
**A.** Its amyloid nucleation score is -0.608 ± 0.38.

**Q.** Which amyloid nucleation score does the source give for CKGFK here?
**A.** The amyloid nucleation score was “inactive”.

**Q.** With LLDMHYTLEWCTKCYTDKVQ as the substance, how does the amyloid nucleation score read?
**A.** Its amyloid nucleation score is 0.121 ± 0.26.

**Q.** For LMVNLYPY, which amyloid nucleation score is on record?
**A.** Its amyloid nucleation score is 0.16 ± 0.4.

**Q.** For FQCVILVPG, which amyloid nucleation score is on record?
**A.** The amyloid nucleation score was 1.03 ± 0.74.

**Q.** Which amyloid nucleation score does the source give for LLVVRNLEGNNIHALVLCVG here?
**A.** Its amyloid nucleation score is 1.91 ± 0.21.

**Q.** For ELSYSYQSGID, which amyloid nucleation score is on record?
**A.** Its amyloid nucleation score is 0.225 ± 0.67.

**Q.** With IGVKVTY as the substance, how does the amyloid nucleation score read?
**A.** Its amyloid nucleation score is -0.796 ± 0.53.

**Q.** For VYLACVSSPCLKS, which amyloid nucleation score is on record?
**A.** The amyloid nucleation score was -0.2 ± 0.79.

**Q.** For TCLCD, which amyloid nucleation score is on record?
**A.** Its amyloid nucleation score is 1.52 ± 0.46.

**Q.** With YYNNLRVSSYQSKFPIMAMF as the substance, how does the amyloid nucleation score read?
**A.** Its amyloid nucleation score is “inactive”.

**Q.** For KESECITS, which amyloid nucleation score is on record?
**A.** The amyloid nucleation score was -0.849 ± 0.75.

**Q.** With TDCHS as the substance, how does the amyloid nucleation score read?
**A.** Its amyloid nucleation score is “inactive”.

**Q.** For CVVLMMGVPAKAGLLLLHWS, which amyloid nucleation score is on record?
**A.** The amyloid nucleation score was 0.297 ± 0.35.

**Q.** With ISWSASLDIDINCQCRGLWG as the substance, how does the amyloid nucleation score read?
**A.** Its amyloid nucleation score is 3.35 ± 0.1.

**Q.** For LAPMDLCGGSVAFR, which amyloid nucleation score is on record?
**A.** Its amyloid nucleation score is 0.47 ± 0.4.

**Q.** Which amyloid nucleation score does the source give for VPIFVNKFVDYTSLSCMHCL here?
**A.** The amyloid nucleation score was 7.379 ± 0.06.

**Q.** For TSGSGINITL, which amyloid nucleation score is on record?
**A.** The amyloid nucleation score was “inactive”.

**Q.** Which amyloid nucleation score does the source give for HSSDMCLSGLM here?
**A.** Its amyloid nucleation score is 0.002 ± 1.4.

**Q.** With GKYILYDQCSNTINSGKLSI as the substance, how does the amyloid nucleation score read?
**A.** Its amyloid nucleation score is “inactive”.

**Q.** Which amyloid nucleation score does the source give for LSVIIII here?
**A.** The amyloid nucleation score was 4.96 ± 0.051.

**Q.** For FMLVAG, which amyloid nucleation score is on record?
**A.** Its amyloid nucleation score is 0.746 ± 0.53.

**Q.** With TISLDRRDAVNYLVAHLCSV as the substance, how does the amyloid nucleation score read?
**A.** The amyloid nucleation score was -0.146 ± 1.4.

**Q.** For TSVLLQHGLWIGS, which amyloid nucleation score is on record?
**A.** The amyloid nucleation score was 0.685 ± 0.34.

**Q.** For NTVFVIDESFGVMGWLGLKQ, which amyloid nucleation score is on record?
**A.** The amyloid nucleation score was 0.294 ± 0.82.

**Q.** For SATASNGRMAGSVSSWRKRW, which amyloid nucleation score is on record?
**A.** The amyloid nucleation score was 0.219 ± 0.36.

**Q.** With NTSELRGNMSRHCKNSGGVI as the substance, how does the amyloid nucleation score read?
**A.** Its amyloid nucleation score is -0.058 ± 0.62.

**Q.** For MCGRSGTFSAILRDREGLNI, which amyloid nucleation score is on record?
**A.** The amyloid nucleation score was 0.219 ± 0.65.

**Q.** For VYFYVQPNGFMEIGASMIAA, which amyloid nucleation score is on record?
**A.** Its amyloid nucleation score is -0.431 ± 1.4.

**Q.** With SLFKNR as the substance, how does the amyloid nucleation score read?
**A.** Its amyloid nucleation score is 0.171 ± 0.61.

**Q.** For CTWYLLVSSSRLLTDSFLPS, which amyloid nucleation score is on record?
**A.** The amyloid nucleation score was 1.32 ± 0.6.

**Q.** For PCYRLWLVSAWAVTQEFTSW, which amyloid nucleation score is on record?
**A.** The amyloid nucleation score was 1.35 ± 0.14.

**Q.** Which amyloid nucleation score does the source give for INRCGGVPARLLLCKLGYLG here?
**A.** Its amyloid nucleation score is 0.298 ± 0.5.

**Q.** With ESAERGVRGSGRGRMNGGMM as the substance, how does the amyloid nucleation score read?
**A.** Its amyloid nucleation score is -0.778 ± 0.98.

**Q.** Which amyloid nucleation score does the source give for TVYMGTLCHYYSGIRLGSIL here?
**A.** Its amyloid nucleation score is 0.458 ± 0.4.

**Q.** Which amyloid nucleation score does the source give for RGVYVWKGSSLH here?
**A.** Its amyloid nucleation score is -0.377 ± 1.1.

**Q.** Which amyloid nucleation score does the source give for RSHSNISKSPLFVVGGAQFM here?
**A.** The amyloid nucleation score was 0.995 ± 0.56.

**Q.** Which amyloid nucleation score does the source give for TESVRKWFKLRLWESWYNSN here?
**A.** Its amyloid nucleation score is 0.145 ± 0.51.

**Q.** With GGFSNFMMVCNVATFSSNQL as the substance, how does the amyloid nucleation score read?
**A.** Its amyloid nucleation score is 3.47 ± 0.19.

**Q.** For RCMMQYKFTWGIVTYRKDLG, which amyloid nucleation score is on record?
**A.** The amyloid nucleation score was 0.658 ± 0.34.

**Q.** With FACYLNHAGGVSAHKYIFVT as the substance, how does the amyloid nucleation score read?
**A.** Its amyloid nucleation score is 0.351 ± 0.37.
